From paper PMC3097272 (The FEBS journal, 2011)

Tests used:
[1] = biological target: non-muscle human F-actin (human) (UniProt P60709); experiment: co-sedimentation
[2] = biological target: rabbit skeletal muscle myosin II (rabbit, UniProt Q28641 1-1938; P02602 1-192; P02608 1-170); experiment: co-sedimentation
Chain of rabbit skeletal muscle myosin II (Q28641 whole entry, chain 1 of 3): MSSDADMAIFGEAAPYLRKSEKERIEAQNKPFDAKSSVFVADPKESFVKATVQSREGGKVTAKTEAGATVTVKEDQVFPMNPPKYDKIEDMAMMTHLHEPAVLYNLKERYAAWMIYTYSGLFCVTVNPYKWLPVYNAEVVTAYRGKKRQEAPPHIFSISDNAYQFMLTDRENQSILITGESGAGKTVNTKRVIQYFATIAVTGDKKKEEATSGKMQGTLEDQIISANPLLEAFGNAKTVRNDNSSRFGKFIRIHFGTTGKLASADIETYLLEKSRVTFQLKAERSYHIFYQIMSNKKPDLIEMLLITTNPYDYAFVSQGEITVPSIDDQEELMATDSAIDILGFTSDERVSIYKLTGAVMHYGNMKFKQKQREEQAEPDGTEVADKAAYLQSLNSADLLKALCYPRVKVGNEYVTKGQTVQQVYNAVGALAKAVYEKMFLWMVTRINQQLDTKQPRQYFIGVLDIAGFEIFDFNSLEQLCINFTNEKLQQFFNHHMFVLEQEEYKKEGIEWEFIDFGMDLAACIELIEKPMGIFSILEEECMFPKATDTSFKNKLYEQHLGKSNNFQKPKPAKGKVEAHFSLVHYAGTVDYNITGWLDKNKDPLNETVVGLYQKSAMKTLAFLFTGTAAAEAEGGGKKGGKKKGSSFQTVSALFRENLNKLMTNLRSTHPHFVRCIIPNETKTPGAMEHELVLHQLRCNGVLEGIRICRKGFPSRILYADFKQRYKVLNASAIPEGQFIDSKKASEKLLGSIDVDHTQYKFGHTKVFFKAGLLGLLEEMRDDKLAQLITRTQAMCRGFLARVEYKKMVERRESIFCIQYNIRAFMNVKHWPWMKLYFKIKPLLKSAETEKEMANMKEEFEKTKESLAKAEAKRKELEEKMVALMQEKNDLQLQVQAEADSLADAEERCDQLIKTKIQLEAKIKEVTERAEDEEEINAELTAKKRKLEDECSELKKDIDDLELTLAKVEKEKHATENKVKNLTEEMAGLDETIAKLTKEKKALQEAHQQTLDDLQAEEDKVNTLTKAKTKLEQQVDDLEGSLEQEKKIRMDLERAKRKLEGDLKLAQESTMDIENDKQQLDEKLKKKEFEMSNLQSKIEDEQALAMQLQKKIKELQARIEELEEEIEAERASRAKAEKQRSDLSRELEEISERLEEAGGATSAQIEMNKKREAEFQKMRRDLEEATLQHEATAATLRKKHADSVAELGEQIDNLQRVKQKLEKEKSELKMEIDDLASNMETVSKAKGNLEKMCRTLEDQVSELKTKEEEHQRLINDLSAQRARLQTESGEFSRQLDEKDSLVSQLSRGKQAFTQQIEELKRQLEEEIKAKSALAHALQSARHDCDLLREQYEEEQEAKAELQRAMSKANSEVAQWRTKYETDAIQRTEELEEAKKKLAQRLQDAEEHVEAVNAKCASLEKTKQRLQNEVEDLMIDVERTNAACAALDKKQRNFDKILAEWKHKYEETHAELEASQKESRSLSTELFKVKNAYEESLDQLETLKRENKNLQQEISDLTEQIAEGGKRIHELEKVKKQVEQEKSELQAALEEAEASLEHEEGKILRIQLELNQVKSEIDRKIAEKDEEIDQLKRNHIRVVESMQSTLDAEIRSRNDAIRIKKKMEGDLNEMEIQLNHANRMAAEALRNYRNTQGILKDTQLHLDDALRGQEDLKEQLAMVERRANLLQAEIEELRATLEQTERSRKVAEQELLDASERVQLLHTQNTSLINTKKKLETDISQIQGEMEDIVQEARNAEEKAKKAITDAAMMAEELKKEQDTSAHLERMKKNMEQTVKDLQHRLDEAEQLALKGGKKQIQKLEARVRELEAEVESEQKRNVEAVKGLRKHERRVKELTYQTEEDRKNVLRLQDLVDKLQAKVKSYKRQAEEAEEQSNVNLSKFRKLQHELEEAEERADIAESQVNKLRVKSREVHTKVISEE
Chain of rabbit skeletal muscle myosin II (P02602 2-192, chain 2 of 3): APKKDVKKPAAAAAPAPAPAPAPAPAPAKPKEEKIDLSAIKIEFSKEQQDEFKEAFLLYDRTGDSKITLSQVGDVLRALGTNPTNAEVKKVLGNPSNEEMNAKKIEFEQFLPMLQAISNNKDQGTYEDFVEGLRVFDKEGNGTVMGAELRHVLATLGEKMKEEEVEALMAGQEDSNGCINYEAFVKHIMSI
Chain of rabbit skeletal muscle myosin II (P02608 2-170, chain 3 of 3): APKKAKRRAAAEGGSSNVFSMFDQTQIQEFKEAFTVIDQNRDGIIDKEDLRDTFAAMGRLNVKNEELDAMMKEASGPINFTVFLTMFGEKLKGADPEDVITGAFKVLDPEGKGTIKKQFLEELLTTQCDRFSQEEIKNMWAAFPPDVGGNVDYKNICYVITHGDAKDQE

| Molecule | stoichiometry N (molar ratio (to 1)) [1] | stoichiometry N [2] |
| --- | --- | --- |
| recombinant HGAL protein (Trx-HGAL fusion protein) (from UniProt Q8N6F7 1-178) (natural protein) | 5 |  |
| recombinant HGAL protein (Trx-HGAL fusion protein) (natural protein, human, UniProt Q8N6F7 1-178, looked up) MGNSLLRENRRQQNTQEMPWNVRMQSPKQRTSRCWDHHIAEGCFCLPWKKILIFEKRQDSQNENERMSSTPIQDNVDQTYSEELCYTLINHRVLCTRPSGNSAEEYYENVPCKAERPRESLGGTETEYSLLHMPSTDPRHARSPEDEYELLMPHRISSHFLQQPRPLMAPSETQFSHL |  | 2.5 molar ratio (to 1) |
